Assays:
[1] = target: T1, human CD19, full length, on cells (human, UniProt P15391 20-556); experiment: FACS on Raji cells
T1 construct: the endogenous CD19 of Raji cells is put under the same molecule (the cell type stands under assay); The entry holds the signal peptide; also called CHO-K1-human CD19; CHO-K1-human CD19-2C8
T1 sequence: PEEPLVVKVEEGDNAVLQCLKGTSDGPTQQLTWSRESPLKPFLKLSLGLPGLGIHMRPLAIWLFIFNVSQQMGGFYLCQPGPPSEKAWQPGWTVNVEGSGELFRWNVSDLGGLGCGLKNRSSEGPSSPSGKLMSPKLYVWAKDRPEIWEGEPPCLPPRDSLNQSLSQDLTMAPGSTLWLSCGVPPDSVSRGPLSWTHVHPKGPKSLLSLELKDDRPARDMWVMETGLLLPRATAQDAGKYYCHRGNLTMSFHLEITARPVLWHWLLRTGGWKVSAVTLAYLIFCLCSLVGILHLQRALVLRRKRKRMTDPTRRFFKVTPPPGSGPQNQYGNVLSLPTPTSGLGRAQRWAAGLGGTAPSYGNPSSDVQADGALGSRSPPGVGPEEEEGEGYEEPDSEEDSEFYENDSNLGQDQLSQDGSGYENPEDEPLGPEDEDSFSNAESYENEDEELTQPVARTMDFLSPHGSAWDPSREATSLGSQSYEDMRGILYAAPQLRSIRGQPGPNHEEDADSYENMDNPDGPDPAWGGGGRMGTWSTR
Source text: (§1) The desired cells were expanded to a logarithmic growth phase in a T-75 cell culture flask. For adherent cells CHO-K1, the culture medium was removed by pipetting, and the cells were washed twice with a PBS buffer, digested with trypsin, and washed twice with a PBS buffer again after the digestion was stopped. For suspension cells Raji, the medium supernatant was discarded by direct centrifugation, and the cell pellet was washed twice with PBS. After cell counting of the cells obtained in the last step, the cell pellet was resuspended to 2×10⁶ cells/mL with a blocking solution [PBS+2% (w/w) BSA] and added into a 96-well FACS reaction plate at 50 μL/well. […] After the plate was centrifuged and washed 5 times with a PBS buffer, the results were assayed and analyzed by FACS (FACS Canto™, purchased from BD Biosciences). Data analysis was performed by software (CellQuest) to obtain the mean fluorescence intensity (MFI) of the cells. Then, analysis was performed by software (GraphPad Prism8), data were fitted, and EC₅₀ values were calculated.

[2] = target: T2, murine CD19 protein (murine, UniProt P25918 19-287, limits assumed); experiment: ELISA, murine CD19 coated
T2 construct: also called mouse CD19-his protein
T2 sequence (looked up): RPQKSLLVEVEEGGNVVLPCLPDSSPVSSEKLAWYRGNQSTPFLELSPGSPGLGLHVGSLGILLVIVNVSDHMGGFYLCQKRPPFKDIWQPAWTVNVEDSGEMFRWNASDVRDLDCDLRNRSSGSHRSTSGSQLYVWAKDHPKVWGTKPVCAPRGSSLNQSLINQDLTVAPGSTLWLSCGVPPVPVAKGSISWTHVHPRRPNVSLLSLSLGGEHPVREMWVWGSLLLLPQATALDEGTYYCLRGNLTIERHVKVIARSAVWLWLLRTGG

[3] = target: T1, human CD19, full length, on cells; experiment: FACS on CHO-K1-human CD19 cells
Source text: as §1

[4] = target: T3, human CD19 exon1-3-His protein (human, UniProt P15391 20-186); experiment: ELISA on coated human CD19 exon1-3-His
T3 construct: Made in HEK293E cells, purified on nickel column; not shown: His tag
T3 sequence: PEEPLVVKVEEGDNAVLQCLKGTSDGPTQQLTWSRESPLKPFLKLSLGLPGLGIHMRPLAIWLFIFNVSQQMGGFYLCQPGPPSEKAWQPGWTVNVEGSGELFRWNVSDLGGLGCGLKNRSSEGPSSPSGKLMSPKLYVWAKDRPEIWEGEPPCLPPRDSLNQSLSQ

[5] = target: T2, murine CD19 protein; experiment: ELISA, murine CD19 coated; remark: listed apart in the source
[6] = target: T4, human CD19-his protein (human, UniProt P15391 20-291); experiment: SPR (Biacore), antibody captured on Protein A chip, human CD19-His as analyte, 1:1 Langmuir model
T4 construct: also called recombinant human CD19-His; human CD19 protein; not shown: His tag
T4 sequence (looked up): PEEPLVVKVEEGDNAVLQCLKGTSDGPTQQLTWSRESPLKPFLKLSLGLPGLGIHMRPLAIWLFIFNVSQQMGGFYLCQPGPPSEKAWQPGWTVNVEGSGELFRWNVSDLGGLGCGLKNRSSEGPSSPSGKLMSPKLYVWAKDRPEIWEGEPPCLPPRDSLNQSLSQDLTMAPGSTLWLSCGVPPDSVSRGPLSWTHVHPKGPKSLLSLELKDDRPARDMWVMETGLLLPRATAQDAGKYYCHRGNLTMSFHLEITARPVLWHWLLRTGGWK
Procedure: The anti-human CD19 antibody was captured using a Protein A chip (GE Healthcare; 29-127-558). The sample and running buffer was HBS-EP+(10 mM HEPES, 150 mM NaCl, 3 mM EDTA, 0.05% surfactant P20) (GE Healthcare; BR-1006-69). The flow cell was set at 25° C. The sample block was set at 16° C. Both were pretreated with the running buffer. In each cycle, first, the test antibody was captured using the Protein A chip, and then a single concentration of CD19 antigen protein was injected. The association and dissociation processes of the antibody with the antigen protein were recorded, and finally, the chip was regenerated using Glycine pH 1.5 (GE Healthcare; BR-1003-54). The association was determined by injecting different concentrations of recombinant human CD19-His in the solution and maintaining for 240 s, wherein the flow rate was 30 μL/min, and the protein was diluted in a 1:1 dilution ratio from 200 nM (see detailed results for actual concentrations tested) to obtain 5 concentrations in total. The dissociation phase was monitored for up to 600 s and triggered by switching from the sample solution to the running buffer. The surface was regenerated by washing with 10 mM glycine solution (pH 1.5) at a flow rate of 30 μL/min for 30 s. The difference in bulk refractive index was corrected by subtracting the responses obtained from the goat anti-human Fc surface. Blank injections were also subtracted (double reference). To calculate the apparent KD and other kinetic parameters, the Langmuir 1:1 model was used.

| Binder | EC50 [1] [nM] | maximum mean fluorescence intensity [1] [MFI] | binding result [2] | EC50 [3] [nM] | maximum mean fluorescence intensity [3] [MFI] | binding result [4] | OD450 at 0.0001 nM [5] [OD450] | OD450 at 0.001 nM [5] [OD450] | OD450 at 0.01 nM [5] [OD450] | OD450 at 0.10 nM [5] [OD450] | OD450 at 1.00 nM [5] [OD450] | OD450 at 10.00 nM [5] [OD450] | OD450 at 100.00 nM [5] [OD450] | Kd [6] [nM] | koff [6] [s⁻¹] | kon [6] [M⁻¹ s⁻¹] |
| --- | --- | --- | --- | --- | --- | --- | --- | --- | --- | --- | --- | --- | --- | --- | --- | --- |
| FMC63.26-mIgG1 (antibody, V domains shown, Humanized FMC63; also called FMC63-L2H6) VH: EVTLKESGPVLVKPTETLTLTCTVSGFSLPDYGVSWIRQPPGKALEWLAVIWGSETTYYNSALKSRLTISKDTSKSQVVLTMTNMDPVDTATYYCAKHYYYGGSYAMDYWGQGTTVTVSS VL: DIQMTQSPSSLSASVGDRVTITCRASQDISKYLNWYQQKPGGAVKLLIYHTSRLHSGVPSRFSGSGSGTDYTLTISSLQPEDFATYYCQQGNTLPYTFGGGTKVEIKR | 0.32 | 8500 | no binding (tested: 100 nM) | 1.12 | 31500 | no binding (tested: 100 nM) | 0.08 | 0.07 | 0.06 | 0.07 | 0.08 | 0.09 | 0.13 | 0.346 | 3.36e-05 | 97200 |
| FMC63.27-mIgG1 (antibody, V domains shown, Humanized FMC63; also called FMC63-L2H7) VH: EVTLKESGPVLVKPTETLTLTCTVSGVSLPDYGVSWIRQPPGKALEWLAVIWGSETTYYNSALKSRLTISKDNSKSQVVLTMTNMDPVDTATYYCAKHYYYGGSYAMDYWGQGTTVTVSS VL: DIQMTQSPSSLSASVGDRVTITCRASQDISKYLNWYQQKPGGAVKLLIYHTSRLHSGVPSRFSGSGSGTDYTLTISSLQPEDFATYYCQQGNTLPYTFGGGTKVEIKR | 0.3 | 7840 | no binding (tested: 100 nM) | 1.33 | 29400 | no binding (tested: 100 nM) | 0.06 | 0.06 | 0.06 | 0.05 | 0.06 | 0.08 | 0.11 | 1.81 | 0.000152 | 84200 |
| FMC63.25-mIgG1 (antibody, V domains shown, Humanized FMC63; also called FMC63-L2H5) VH: EVTLKESGPVLVKPTETLTLTCTVSGFSLSDYGVSWIRQPPGKALEWLAVIWGSETTYYNSALKSRLTISKDTSKSQVVLTMTNMDPVDTATYYCAKHYYYGGSYAMDYWGQGTTVTVSS VL: DIQMTQSPSSLSASVGDRVTITCRASQDISKYLNWYQQKPGGAVKLLIYHTSRLHSGVPSRFSGSGSGTDYTLTISSLQPEDFATYYCQQGNTLPYTFGGGTKVEIKR | 0.33 | 9170 | no binding (tested: 100 nM) | 0.79 | 33100 | no binding (tested: 100 nM) | 0.08 | 0.08 | 0.08 | 0.08 | 0.08 | 0.08 | 0.09 | 0.0195 | 1.8e-06 | 92400 |

— US20230406922A1 (SIMCERE ZAIMING PHARMACEUTICAL, published 2023)
